Source: publication PMC4770229, “Nuclear factor 90 uses an ADAR2-like binding mode to recognize specific bases in dsRNA”

Tests used:
NF90long;NF45 = NF90long;NF45 (mouse;mouse?, UniProt Q9Z1X4;Q9CXY6 1-590;1-390, |); assay: competition; competes DY781 21mer efficiently; EMSA: 20 mM HEPES pH 7.5, 150 mM K acetate, on ice, 1 uM RNA (competition 0.5 uM complex); FA: same buffer, 23.5 C, 250 nM RNA; ITC: 20 mM HEPES pH 7.5, 50 mM NaCl, 25 C; conditions: protein: recombinant;recombinant; tags: 6xHis removed by TEV;6xHis removed by TEV; copies: 1;1; hairpin with mismatches
NF90long;NF45-deltaN28 = NF90long;NF45-deltaN28 (mouse;mouse, UniProt Q9Z1X4;Q9CXY6 1-590;28-390, |); assay: fluorescence anisotropy; EMSA: 20 mM HEPES pH 7.5, 150 mM K acetate, on ice, 1 uM RNA (competition 0.5 uM complex); FA: same buffer, 23.5 C, 250 nM RNA; ITC: 20 mM HEPES pH 7.5, 50 mM NaCl, 25 C; conditions: protein: recombinant;recombinant; tags: 6xHis removed by TEV;6xHis removed by TEV; copies: 1;1; label: 5' Cy3 on strand 1; blunt
NF90dsRBDs = target: T1, NF90dsRBDs (mouse, UniProt Q9Z1X4 380-592); assay: as above; conditions: protein: recombinant; tags: GST removed by TEV; label: 5' Cy3 on strand 1; blunt
T1 sequence: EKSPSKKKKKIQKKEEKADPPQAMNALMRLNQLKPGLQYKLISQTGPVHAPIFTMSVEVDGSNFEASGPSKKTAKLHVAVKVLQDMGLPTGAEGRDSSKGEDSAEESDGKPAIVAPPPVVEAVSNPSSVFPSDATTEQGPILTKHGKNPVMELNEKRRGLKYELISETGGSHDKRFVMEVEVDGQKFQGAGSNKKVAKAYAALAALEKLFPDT

NF90dsRBDs-deltaNLS = target: T2, NF90dsRBDs-deltaNLS (mouse, UniProt Q9Z1X4 393-592); assay: ITC; apparent Kd; unit as printed (mM), possibly uM misprint; 1:2 RNA:protein; EMSA: 20 mM HEPES pH 7.5, 150 mM K acetate, on ice, 1 uM RNA (competition 0.5 uM complex); FA: same buffer, 23.5 C, 250 nM RNA; ITC: 20 mM HEPES pH 7.5, 50 mM NaCl, 25 C; conditions: protein: recombinant; tags: GST removed by TEV; chain copies: 2; blunt
T2 sequence: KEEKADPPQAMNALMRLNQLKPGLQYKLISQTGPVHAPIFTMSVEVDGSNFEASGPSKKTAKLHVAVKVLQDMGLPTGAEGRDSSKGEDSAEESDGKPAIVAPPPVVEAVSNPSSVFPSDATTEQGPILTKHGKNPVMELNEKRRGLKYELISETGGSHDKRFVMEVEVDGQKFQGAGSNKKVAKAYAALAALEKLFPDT

[1] = target: NF90-deltaC380;NF45-deltaN28 (with NF90-deltaC380) (mouse?;mouse?, UniProt Q9Z1X4;Q9CXY6 1-380;28-390, |); assay: EMSA; EMSA: 20 mM HEPES pH 7.5, 150 mM K acetate, on ice, 1 uM RNA (competition 0.5 uM complex); FA: same buffer, 23.5 C, 250 nM RNA; ITC: 20 mM HEPES pH 7.5, 50 mM NaCl, 25 C; conditions: protein: recombinant;recombinant; tags: ;; copies: 1;1; label: 5' DY781 on strand 1; blunt

B1: GluA2(R/G) hairpin RNA (structured_RNA)
RNA: CAUUAAGGUGGGUGGAAUAGUAUAACAAUAUGCUAAAUGUUGUUAUAGUAUCCCACCUACCCUGAUG
B1: binds (NF90long;NF45).

B2: 21mer dsRNA, Cy3 (dsRNA)
RNA 1: UCACUUUCAUAAUGCUGGAUA
RNA 2: UAUCCAGCAUUAUGAAAGUGA
With B2 the Kd (NF90long;NF45-deltaN28) was 0.046 ± 0.016 µM and the Kd (NF90dsRBDs) was 0.433 ± 0.055 µM.

B3: 18mer dsRNA, 2'F strand (dsRNA)
RNA 1: UCACUUUCAUAAUGCUGG
RNA 2: CCAGCAUUAUGAAAGUGA
modifications: 2'-F ribose uniformly on strand 1
B3 was tested, and the Kd (NF90dsRBDs-deltaNLS) was ~2400 µM.

B4: 21mer dsRNA, DY781 (dsRNA)
RNA 1: UCACUUUCAUAAUGCUGGAUA
RNA 2: UAUCCAGCAUUAUGAAAGUGA
B4: no binding [1].

B5: 18mer dsRNA, unmodified (dsRNA)
RNA 1: UCACUUUCAUAAUGCUGG
RNA 2: CCAGCAUUAUGAAAGUGA
For B5, the Kd (NF90dsRBDs-deltaNLS) was ~2400 µM.
